The text below walks through data of patent publication US8143216B2, “Modified human growth hormone” (Ambrx, Inc., priority 2004, dated 2012).

Data set [1] is described as follows: Pharmacokinetic studies, single s.c. dose in normal male Sprague-Dawley rats. Format: in vivo, rat. The settings on record: single-dose 1 mg/kg bolus s.c., normal male Sprague-Dawley rats. On the procedure:
Pharmacokinetic properties of PEG-modified growth hormone compounds were compared to each other and to nonPEGylated growth hormone in male Sprague-Dawley rats (261-425 g) obtained from Charles River Laboratories. Catheters were surgically installed into the carotid artery for blood collection. Following successful catheter installation, animals were assigned to treatment groups (three to six per group) prior to dosing. Animals were dosed subcutaneously with 1 mg/kg of compound in a dose volume of 0.41-0.55 ml/kg. Blood samples were collected at various time points via the indwelling catheter and into EDTA-coated microfuge tubes. Plasma was collected after centrifugation, and stored at −80° C. until analysis. Compound concentrations were measured using antibody sandwich growth hormone ELISA kits from either BioSource International (Camarillo, Calif.) or Diagnostic Systems Laboratories (Webster, Tex.). Concentrations were calculated using standards corresponding to the analog that was dosed. Pharmacokinetic parameters were estimated using the modeling program WinNonlin (Pharsight, version 4.1). Noncompartmental analysis with linear-up/log-down trapezoidal integration was used, and concentration data was uniformly weighted.
Rats (n=3-4 per group) were given a single bolus dose of 1 mg/kg hGH wild-type protein (WHO hGH), His-tagged hGH polypeptide (his-hGH), or His-tagged hGH polypeptide comprising non-natural amino acid p-acetyl-phenylalanine at position 92 covalently linked to 30 kDa PEG (30 KPEG-pAF92(his)hGH). Plasma samples were taken over the indicated time intervals and assayed for injected compound as described.
Rats (n=3-6 per group) were given a single bolus dose of 1 mg/kg protein. hGH polypeptides comprising non-natural amino acid p-acetyl-phenylalanine covalently linked to 30 kDa PEG at each of six different positions were compared to WHO hGH and (his)-hGH. Plasma samples were taken over the indicated time intervals and assayed for injected compound as described. Concentration vs time curves were evaluated by noncompartmental analysis (Pharsight, version 4.1). Values shown are averages (+/− standard deviation). Cmax: maximum concentration; terminal t1/2: terminal half-life; AUC0->inf: area under the concentration-time curve extrapolated to infinity; MRT: mean residence time; Cl/f: apparent total, plasma clearance; Vz/f: apparent volume of distribution during terminal phase.

In data set [2] the target is T1, rat GHR ECD (L43R) (Rattus norvegicus, UniProt P16310, L61R).
T1 construct: (GHR ECD, amino acids S29-T238) was cloned into pET20b vector; made in house
T1 sequence (P16310 47-256 L61R): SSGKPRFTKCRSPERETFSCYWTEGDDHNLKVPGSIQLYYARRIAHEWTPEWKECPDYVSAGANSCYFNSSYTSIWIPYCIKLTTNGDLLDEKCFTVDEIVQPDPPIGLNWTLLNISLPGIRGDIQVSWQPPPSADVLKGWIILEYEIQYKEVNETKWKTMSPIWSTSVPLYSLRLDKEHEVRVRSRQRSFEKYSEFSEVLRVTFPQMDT
The experiment in a line: Biacore analysis of binding of GH to GHR. The settings on record: rat GHR ECD (L43R) immobilized on a CM5 chip, bivalent analyte model. Here is the method: Cloning and purification of rat GH receptor The extracellular domain of rat GH receptor (GHR ECD, amino acids S29-T238) was cloned into pET20b vector (Novagen) between Nde I and Hind III sites in frame with C-terminal 6H is tag. A mutation of L43 to R was introduced to further approximate the human GH receptor binding site (Souza et al., Proc Natl Acad Sci USA. (1995) 92(4): 959-63). Recombinant protein was produced in BL21 (DE3) E. coli cells (Novagen) by induction with 0.4 mM IPTG at 30° C. for 4-5 hours. After lysing the cells, the pellet was washed four times by resuspending in a dounce with 30 mL of 50 mM Tris, pH 7.6, 100 mM NaCl, 1 mM EDTA, 1% Triton X-100, and twice with the same buffer without Triton X-100. […] Refolding was accomplished by means of passing an aliquot of the inclusion body solution through a S100 (Sigma) gel filtration column, equilibrated with 50 mM Tris, pH 7.8, 1 M L-arginine, 3.7 mM cystamine, 6.5 mM cysteamine. Fractions containing soluble protein were combined and dialyzed against 50 mM Tris, pH 7.6, 200 mM NaCl, 10% glycerol. The sample was briefly centrifuged to remove any precipitate and incubated with an aliquot of Talon resin (Clontech), according to manufacturer's instructions. After washing the resin with 20 volumes of dialysis buffer supplemented with 5 mM imidazole, protein was eluted with 120 mM imidazole in dialysis buffer. Finally, the sample was dialyzed overnight against 50 mM Tris, pH 7.6, 30 mM NaCl, 1 mM EDTA, 10% glycerol, centrifuged briefly to remove any precipitate, adjusted to 20% glycerol final concentration, aliquoted and stored at −80 C. Concentration of the protein was measured by OD(280) using calculated extinction coefficient of ε=65,700 M^−1*cm^−1.
Approximately 600-800 RUs of soluble GHR ECD was immobilized on a Biacore™ CM5 chip, using a standard amine-coupling procedure, as recommended by the manufacturer. […] See, e.g., Cunningham et al. J Mol. Biol. (1993) 234(3): 554-63 and Wells J A. Proc Natl Acad Sci USA (1996) 93(1): 1-6).
Various concentrations of wild type or mutant GH (0.1-300 nM) in HBS-EP buffer (Biacore™, Pharmacia) were injected over the GHR surface at a flow rate of 40 μl/min for 4-5 minutes, and dissociation was monitored for 15 minutes post-injection. The surface was regenerated by a 15 second pulse of 4.5M MgCl2. […] Reference cell with no receptor immobilized was used to subtract any buffer bulk effects and non-specific binding.
Kinetic binding data obtained from GH titration experiments was processed with BiaEvaluation 4.1 software (BIACORE™). […] Equilibrium dissociation constants (Kd) were calculated as ratios of individual rate constants (koff/kon).
A general note: Surface plasmon resonance follows binding to a sensor surface in real time, without labels.

Data set [3] has as its system hypophysectomized rats. The data set can be described thus: Pharmacodynamic studies in hypophysectomized rats (Example 30). Format: in vivo, rat. The settings on record: s.c., compared with the pAF92 30 kDa PEG compound, p<0.0005. On the procedure:
Hypophysectomized male Sprague-Dawley rats were obtained from Charles River Laboratories. Pituitaries were surgically removed at 3-4 weeks of age. Animals were allowed to acclimate for a period of three weeks, during which time bodyweight was monitored. Animals with a bodyweight gain of 0-8 g over a period of seven days before the start of the study were included and randomized to treatment groups. Rats were administered either a bolus dose or daily dose subcutaneously. Throughout the study rats were daily and sequentially weighed, anesthetized, bled, and dosed (when applicable). Blood was collected from the orbital sinus using a heparinized capillary tube and placed into an EDTA coated microfuge tube. Plasma was isolated by centrifugation and stored at −80° C. until analysis.
The peptide IGF-1 is a member of the family of somatomedins or insulin-like growth factors. IGF-1 mediates many of the growth-promoting effects of growth hormone. IGF-1 concentrations were measured using a competitive binding enzyme immunoassay kit against the provided rat/mouse IGF-1 standards (Diagnosic Systems Laboratories). Significant difference was determined by t-test using two-tailed distribution, unpaired, equal variance. […] Rats (n=5-7 per group) were given either a single dose or daily dose subcutaneously. Animals were sequentially weighed, anesthetized, bled, and dosed (when applicable) daily. […]

Regarding “Y35pAF-30KD PEG: hGH polypeptide comprising p-acetyl-phenylalanine at position 35 covalently linked to 30 kDa PEG”, in data set [1], the “AUC0−>inf” value is 39,918 ng × hr/ml; the Cl/f was determined as 0.583 mL/min/kg; the Cmax is recorded as 1,885 ng/ml; the MRT – broadly, the average time that molecules of a dose stay in the body – is 19.16 h. Moreover, the “Terminal t1/2” value in data set [1] amounted to 4.85 h. Besides, the kon (in general, the second-order rate constant of association) in data set [2] was 90000 M⁻¹ s⁻¹. The “bodyweight gain at day 9” value in data set [3] is on record as “greater weight gain was observed”.
